{
  "source": "patent US11230579B2",
  "about": "“Method of treating BCL-2 over-expressing disorders using arts containing a BH3-like domain” (CARMEL-HAIFA UNIVERSITY ECONOMIC CORPORATION LTD., priority 2012, dated 2022)",
  "molecules": {"B1": {"name": "ARTS: septin-like mitochondrial protein; human ARTS of 274 amino acid residues, GenBank Accession No. AF176379 (protein, listed as Homo sapiens)", "chain": "MIKRFLEDTTDDGELSKFVKDFSGNASCHPPEAKTWASRPQVPEPRPQAPDLYDDDLEFRPPSRPQSSDNQQYFCAPAPLSPSARPRSPWGKLDPYDSSEDDKEYVGFATLPNQVHRKSVKKGFDFTLMVAGESGLGKSTLVNSLFLTDLYRDRKLLGAEERIMQTVEITKHAVDIEEKGVRLRLTIVDTPGFGDAVNNTECWKPVAEYIDQQFEQYFRDESGLNRKNIQDNRVHCCLYFISPFGHGYGPSLRLLAPPGAVKGTGQEHQGQGCH"}},
  "key": {"XIAP [1]": {"target": "T1, XIAP (Homo sapiens, UniProt P98170)", "T1 sequence (P98170 whole entry)": "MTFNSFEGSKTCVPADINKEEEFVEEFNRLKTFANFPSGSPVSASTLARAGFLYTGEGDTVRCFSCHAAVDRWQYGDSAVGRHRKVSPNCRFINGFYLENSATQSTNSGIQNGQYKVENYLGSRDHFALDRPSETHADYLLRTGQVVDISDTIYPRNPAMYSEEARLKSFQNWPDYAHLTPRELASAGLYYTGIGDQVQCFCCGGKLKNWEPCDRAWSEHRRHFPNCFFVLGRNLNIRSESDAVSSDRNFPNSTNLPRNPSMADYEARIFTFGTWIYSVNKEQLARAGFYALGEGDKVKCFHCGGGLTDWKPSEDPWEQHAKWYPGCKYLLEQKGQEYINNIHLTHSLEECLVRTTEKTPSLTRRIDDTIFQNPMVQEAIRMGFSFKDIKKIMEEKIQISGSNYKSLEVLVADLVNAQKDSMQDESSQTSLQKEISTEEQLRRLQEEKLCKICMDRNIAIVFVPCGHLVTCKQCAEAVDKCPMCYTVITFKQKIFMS", "conditions": "in vitro and in vivo; cited from earlier work"}, "XIAP [2]": {"target": "T1, XIAP", "test": "Bimolecular Fluorescence Complementation (BiFC) with flow cytometry, ARTS and XIAP", "type": "binding", "design": "expressed in transfected cells; host or cells: HeLa", "conditions": "living cells, 30 minutes after apoptotic induction, data not shown", "excerpt": "(§1) The Bimolecular Fluorescence Complementation (BiFC) assay, provides a simple and direct way to visualize protein-protein interactions in real-time and in living cells. The method is based on formation of a fluorescent complex through the association of two fragments of a fluorescent protein, brought together by an interaction between proteins fused to the fragments. This method is especially attractive because the Green fluorescent protein (GFP) or Yellow fluorescent protein (YFP) chromophore forms spontaneously on protein folding in virtually every cell type tested (Kerppola, 2006).\n(§2) Direct binding between [ARTS and Bcl-2] and [XIAP and Bcl-2] was examined using the BiFC system. […]\n(§3) Transfection was performed using 200 ng of each plasmid together with 50 ng of pdsRED plasmid which served as control for transfection efficiency. […] Flow cytometry analyses of cell suspensions were performed using a fluorescence-activated cell sorter (FACSCantoII; BD Biosciences) equipped with an argon laser emitting at 488 nm. […] Results were analyzed using […] software (BD Biosciences). A ratio between YFP fluorescence and Red fluorescence was calculated for each time point.\n(§4) To further investigate the binding relationships within this complex, the split-Venus, Bimolecular Fluorescence Complementation (BiFC) system was used. […]"}, "Bcl-2 [3]": {"system": "Bcl-2", "test": "Functional-structural pull-down assay with anti Bcl2 antibody in transfected HeLa cells", "type": "binding, human", "conditions": "pull-down with Bcl-2 antibodies", "experimental": "HeLa cells were transiently transfected with Full length ARTS plasmid and 128 amino acids N′ terminus deletion of ARTS plasmid, for 24 hrs. The cells were extracted using RIPA-SDS lysis buffer. Immunoprecipitation was done by incubation of lysates overnight with anti Bcl2 antibody (BD), followed by precipitation done with protein A/G beads (Santa Cruz). Western blot analysis was performed using monoclonal anti ARTS antibody directed against its unique C terminus (Sigma).\nIn order to identify the Bcl-2 binding domain in ARTS, the inventors examined whether deletion of different fragments of ARTS, namely, the N-terminal 128 amino-acid residues may have an effect. Therefore, pull-down experiments were performed in HeLa cells transfected with either the full length ARTS or a deletion mutant thereof."}, "Bcl-2 [4]": {"system": "Bcl-2", "test": "IP with anti ARTS antibody in HeLa wt cells, Bcl-2", "type": "binding, human", "experimental": "(§5) Co immunoprecipitation was performed as previously described (Gottfried et al., 2004). Briefly, 10 μg of anti-ARTS antibody or 2 μg of anti-Bcl-2 or anti-XIAP antibody were added to the protein lysate and the samples were left rotating overnight at 4° C. On the following day, agarose beads conjugated to protein A/G (Santa Cruz) were added for 4 h. Samples were centrifuged at 4000 rpm, 4° C. for 5 min and washed three times with PBS. Proteins were eluted from beads following 5 min of boiling in sample buffer and separated on 12.5% SDS-PAGE gel, followed by Western blot analysis.\n(§6) Further, HeLa wt cells were treated with ABT-263 25 μM for 24 h. 750 μg of total proteins were subjected to Immunoprecipitation (IP) assay using monoclonal mouse anti ARTS Antibody (Ab). Western Blot analysis was performed using Bcl-2, Bcl-xL, ARTS and Actin antibodies. […] This binding is still seen after 24 hours of treatment with ABT-263. The decrease in binding may be the result of lower levels of Bcl-2 and Bcl-xL known to be strongly degraded after 24 hours of apoptosis."}, "Bcl-XL": {"target": "Bcl-XL (Homo sapiens, UniProt Q07817)", "sequence (Q07817 whole entry)": "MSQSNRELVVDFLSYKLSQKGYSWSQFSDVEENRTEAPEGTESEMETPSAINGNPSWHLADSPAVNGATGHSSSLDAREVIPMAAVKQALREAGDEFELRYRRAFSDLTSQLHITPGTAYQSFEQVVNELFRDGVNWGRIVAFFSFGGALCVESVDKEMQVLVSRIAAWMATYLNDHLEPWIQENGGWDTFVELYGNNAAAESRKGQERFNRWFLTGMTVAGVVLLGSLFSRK", "test": "IP with anti ARTS antibody in HeLa wt cells, Bcl-xL", "type": "binding", "design": "endogenous in cells; host or cells: HeLa wt cells", "experimental": "as §5, §6"}, "Bcl-2 and XIAP": {"system": "Bcl-2 and XIAP", "test": "Immunoprecipitation with anti-ARTS monoclonal antibody in HeLa, BT-549 and COS-7 cells", "type": "binding", "conditions": "BT-549 and 6-Myc-ARTS transfected COS-7 cells", "experimental": "as §5"}, "Bcl-2 [5]": {"system": "Bcl-2", "test": "Myc beads pull-down of ARTS and Bcl-2 in co-transfected COS-7 cells", "type": "binding", "conditions": "COS-7 cells co-transfected with Bcl-2 and ARTS", "experimental": "(§7) COS-7 cells were co-transfected with different constructs as detailed herein. The cells were lysed in RIPA buffer (150 mM NaCl, 50 mM Tris-HCl (pH 8), 1% NP-40, 0.5% deoxycholate acid containing protease inhibitors (mini Complete, Roche)). The samples were left rotating overnight at 4° C. with the anti-Myc-beads (Santa Cruz). Samples were centrifuged at 4000 rpm, 4° C. for 5 min and washed four times in PBS. Proteins were eluted from beads following 5 min of boiling in sample buffer. Proteins were separate on 12.5% SDS-PAGE gel, followed by Western blot analysis.\nThe mechanism by which ARTS regulates Bcl-2 levels was further tested using a pull-down assay in COS-7 cells which were co-transfected with Bcl-2 and ARTS expression vectors. Pull-down assays were performed using agarose anti-myc beads followed by Western blot analysis using mouse anti-ARTS and anti-Bcl-2 antibodies."}, "Bcl-2 [6]": {"system": "Bcl-2", "test": "Over-expression of ARTS in COS-7 cells, Bcl-2 levels by Western blot and densitometry", "type": "cell-based", "conditions": "COS-7 cells, transient transfection", "excerpt": "For transient transfections jetPEI™ (Polyplus Transfection) and Transfectol (GeneChoice) reagents were used according to the manufacturers' instructions.\nTo determine whether ARTS promotes apoptosis by regulating the levels of Bcl-2, the inventors first over-expressed ARTS in COS-7 cells. More specifically, COS-7 cell were transiently transfected with ARTS, Bcl-2 or empty vector or co-transfected with both constructs."}, "Bcl-2 [7]": {"system": "Bcl-2", "test": "Bimolecular Fluorescence Complementation (BiFC) with flow cytometry, ARTS and Bcl-2", "type": "binding, human", "conditions": "living cells, 30 minutes after apoptotic induction, data not shown", "excerpt": "as §1, §2, §3, §4"}, "XIAP and Bcl-2": {"target": "T2, XIAP and Bcl-2 (Homo sapiens, UniProt P10415+P98170)", "T2 construct": "expressed in transfected cells; host or cells: COS-7", "T2 sequence (P98170 whole entry)": "as the sequence (P98170 whole entry) above", "T2 sequence (P10415 whole entry)": "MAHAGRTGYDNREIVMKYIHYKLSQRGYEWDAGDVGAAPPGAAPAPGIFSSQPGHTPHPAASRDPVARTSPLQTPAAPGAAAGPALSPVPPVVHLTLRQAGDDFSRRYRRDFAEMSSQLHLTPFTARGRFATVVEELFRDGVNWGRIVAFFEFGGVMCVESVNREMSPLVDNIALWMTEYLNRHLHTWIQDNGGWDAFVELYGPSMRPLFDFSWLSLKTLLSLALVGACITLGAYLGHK", "test": "Pull-down of myc-XIAP in COS-7 cells co-transfected with ARTS, flag-Bcl-2 and myc-XIAP", "type": "binding", "experimental": "as §7\nFurther understanding and evaluation of the relative contribution of ARTS to the formation of a complex with Bcl-2 and XIAP was obtained by over-expressing ARTS, Bcl-2, and XIAP alone or all together in COS-7 cells, which contain relatively small amounts of endogenous ARTS.\nFIGS. 5A and 5B show results of COS-7 cells (pull down and lysates) transiently co-transfected with combinations of ARTS, flag-Bcl-2, and myc-XIAP constructs. Pull-down of XIAP was performed using anti-myc beads, and the precipitate was subjected to western blot analyses. […] This weak binding was attributed to the presence of low endogenous levels of ARTS in these COS-7 cells resulting in almost no formation of the complex."}},
  "data": [
    {"molecule": "B1", "values": [
      {"measurement": "binding to XIAP", "setting": "XIAP [1]", "result": "binds directly to XIAP"},
      {"measurement": "binding to XIAP (BiFC fluorescence)", "setting": "XIAP [2]", "result": "Strong binding"},
      {"measurement": "binding to Bcl-2", "setting": "Bcl-2 [3]", "result": "binds to Bcl-2"},
      {"measurement": "binding to Bcl-2 in living cells", "setting": "Bcl-2 [4]", "result": "binds"},
      {"measurement": "binding to Bcl-xL in living cells", "setting": "Bcl-XL", "result": "binds"},
      {"measurement": "complex of ARTS, Bcl-2 and XIAP", "setting": "Bcl-2 and XIAP", "result": "form a complex"},
      {"measurement": "complex with Bcl-2", "setting": "Bcl-2 [5]", "result": "forms a complex with Bcl-2"},
      {"measurement": "Bcl-2 levels on over expression", "setting": "Bcl-2 [6]", "result": "reduction in Bcl-2 levels"},
      {"measurement": "binding to Bcl-2 (BiFC fluorescence)", "setting": "Bcl-2 [7]", "result": "Strong binding"},
      {"measurement": "ability of XIAP to bind to Bcl-2 on over-expression of ARTS", "setting": "XIAP and Bcl-2", "result": "significantly increased"}
    ]}
  ]
}
